Measured values: article PMC10786891, “Massively parallel profiling of RNA-targeting CRISPR-Cas13d”
Numbering of substitutions follows the chain as printed. Names and notes keep the numbering of the source.

Molecular target: T1, EsCas13d, nuclease-dead (Eubacterium siraeum, UniProt B0MS50, R295A;H300A;R849A;H854A)
T1 sequence: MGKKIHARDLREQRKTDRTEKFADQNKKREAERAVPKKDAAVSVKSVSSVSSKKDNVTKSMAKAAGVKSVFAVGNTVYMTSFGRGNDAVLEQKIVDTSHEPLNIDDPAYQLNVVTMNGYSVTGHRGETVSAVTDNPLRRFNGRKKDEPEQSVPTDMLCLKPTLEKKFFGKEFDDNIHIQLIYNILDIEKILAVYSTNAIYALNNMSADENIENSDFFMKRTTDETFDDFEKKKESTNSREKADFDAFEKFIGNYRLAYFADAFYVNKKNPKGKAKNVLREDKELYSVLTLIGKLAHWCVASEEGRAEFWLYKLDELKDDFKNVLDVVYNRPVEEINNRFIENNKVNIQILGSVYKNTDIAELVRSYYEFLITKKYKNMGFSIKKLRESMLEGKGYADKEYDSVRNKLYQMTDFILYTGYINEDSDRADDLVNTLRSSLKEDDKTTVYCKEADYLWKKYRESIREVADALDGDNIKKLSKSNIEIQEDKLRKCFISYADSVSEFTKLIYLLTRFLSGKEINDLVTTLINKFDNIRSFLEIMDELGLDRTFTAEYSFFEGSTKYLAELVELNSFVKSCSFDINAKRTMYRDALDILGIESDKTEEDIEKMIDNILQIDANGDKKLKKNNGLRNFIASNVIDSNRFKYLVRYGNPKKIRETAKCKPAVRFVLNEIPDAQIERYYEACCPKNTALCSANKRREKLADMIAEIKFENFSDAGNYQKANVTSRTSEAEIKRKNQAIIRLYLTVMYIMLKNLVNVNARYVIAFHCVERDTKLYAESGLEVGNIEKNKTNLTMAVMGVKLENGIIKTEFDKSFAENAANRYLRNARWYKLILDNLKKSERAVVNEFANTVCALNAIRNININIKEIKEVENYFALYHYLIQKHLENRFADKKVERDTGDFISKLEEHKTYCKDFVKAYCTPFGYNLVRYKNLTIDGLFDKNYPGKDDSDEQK
Assay: crRNA (strand 1, pre-loaded); Mg2+; 40 mM Tris-HCl pH 7.5, 150 mM NaCl, 6 mM MgCl2, 1 mM DTT, 0.1% Tween-20, 0.2 mg/ml BSA; 25 C; 10 min per concentration, then washed
Conditions: tags: His6-TwinStrep-SUMO cleaved; N-terminal SNAP kept (SNAP-Surface 488); label: 3' end held by stalled T7 RNA polymerase

B1: target 1 insC 3' of 13,insA 3' of 7 (mixed)
RNA 1: CACCCGUGCAAAAAUGCAGGGGUCUAAAACUGAGCGGAUAACCUCUCUAUGG
RNA 2: GGGAAUGGAUCCACAUCUACGAAUUCGUACCAUAGAGAGCGUUAUCACGCUCACCGAGAUCGGAAGAGCACACGU
Kd: 14.2 ± 0.9 nM

B2: target 1 insA 3' of 11,insA 3' of 4 (mixed)
RNA 1: B1 RNA 1
RNA 2: B1 RNA 2 with C40G, G41U, U42A, A47C, C48G, G49C, C50A
Kd: 9.6 ± 0.6 nM

B3: target 1 U10C,G17C (mixed)
RNA 1: B1 RNA 1
RNA 2: GGGAAUGGAUCCACAUCUACGAAUUCGUACCAUACAGAGGUCAUCCGCUCACCGAGAUCGGAAGAGCACACGU
Kd: 63 ± 19 nM

B4: target 1 insG 3' of 18,insU 3' of 15 (mixed)
RNA 1: B1 RNA 1
RNA 2: GGGAAUGGAUCCACAUCUACGAAUUCGUACCAUAGGAGUAGGUUAUCCGCUCACCGAGAUCGGAAGAGCACACGU
Kd: 70 ± 17 nM

B5: target 1 insA 3' of 6,insC 3' of 3 (mixed)
RNA 1: B1 RNA 1
RNA 2: B1 RNA 2 with C40G, G41U, U43A, A44U, U45C, C48G, G49C, C50U, U51C
Kd: 20 ± 1.3 nM

B6: target 1 insA 3' of 11,insG 3' of 6 (mixed)
RNA 1: B1 RNA 1
RNA 2: B1 RNA 2 with C40G, G41U, U42A, A47C, C48G
Kd: 15.7 ± 1.1 nM

B7: target 1 insU 3' of 22,insA 3' of 13 (mixed)
RNA 1: B1 RNA 1
RNA 2: B4 RNA 2 with C31U, A32C, U33A, A34U, G35A, U39A, A40G, G41A
Kd: 17.1 ± 1.9 nM

B8: target 1 insG 3' of 4,insU 3' of 2 (mixed)
RNA 1: B1 RNA 1
RNA 2: B1 RNA 2 with C40G, G41U, U43A, A44U, U45C, A47G, C50U, U51C, C52U
Kd: 8.5 ± 0.4 nM

B9: target 1 insC 3' of 11,insC 3' of 5 (mixed)
RNA 1: B1 RNA 1
RNA 2: B1 RNA 2 with C40G, G41U, U42C, A47C, C48G, G49C
Kd: 18.2 ± 1.4 nM

B10: target 1 C6G,A9C (mixed)
RNA 1: B1 RNA 1
RNA 2: B3 RNA 2 with C35G, C42U, A43C, C46G
Kd: 11.7 ± 0.6 nM

B11: target 1 G13A,A16C (mixed)
RNA 1: B1 RNA 1
RNA 2: B3 RNA 2 with C35G, A36C, G39A, C42U
Kd: 28.8 ± 1.6 nM

B12: target 1 insG 3' of 11,insG 3' of 8 (mixed)
RNA 1: B1 RNA 1
RNA 2: B1 RNA 2 with C40G, G41U, U42G, C46G, A47C
Kd: 33.3 ± 1.5 nM

B13: target 1 insU 3' of 7 (mixed)
RNA 1: B1 RNA 1
RNA 2: GGGAAUGGAUCCACAUCUACGAAUUCGUACCAUAGAGAGGUUAUCUCGCUCACCGAGAUCGGAAGAGCACACGU
Kd: 14.8 ± 1.2 nM

B14: target 1 U11G,A18U (mixed)
RNA 1: B1 RNA 1
RNA 2: B3 RNA 2 with A34U, C35G, U41G, C42U
Kd: 100 ± 25 nM

B15: target 1 insA 3' of 6,insA 3' of 4 (mixed)
RNA 1: B1 RNA 1
RNA 2: B1 RNA 2 with C40G, G41U, U43A, A44U, U45C, C48G, G49C, C50A
Kd: 28.5 ± 2.8 nM

B16: target 1 C4G,G5U (mixed)
RNA 1: B1 RNA 1
RNA 2: B3 RNA 2 with C35G, C42U, G47U, C48G
Kd: 34.2 ± 2.7 nM

B17: target 1 insG 3' of 19,insC 3' of 1 (mixed)
RNA 1: B1 RNA 1
RNA 2: GGGAAUGGAUCCACAUCUACGAAUUCGUACCAUGAGAGAGGUUAUCCGCUCACCCGAGAUCGGAAGAGCACACGU
Kd: 59 ± 7 nM

B18: target 1 insC 3' of 15,insG 3' of 1 (mixed)
RNA 1: B1 RNA 1
RNA 2: B17 RNA 2 with G34A, A35G, G36A, A37G, G38C, C53G
Kd: 16.7 ± 1.3 nM

B19: target 1 insG 3' of 19,insA 3' of 2 (mixed)
RNA 1: B1 RNA 1
RNA 2: B17 RNA 2 with C53A
Kd: 85 ± 26 nM

B20: target 1 C6G,A16C (mixed)
RNA 1: B1 RNA 1
RNA 2: B3 RNA 2 with C35G, A36C, C42U, C46G
Kd: 42.2 ± 1.8 nM

B21: target 1 insC 3' of 12,insU 3' of 7 (mixed)
RNA 1: B1 RNA 1
RNA 2: B1 RNA 2 with C40G, G41C, A47U
Kd: 26.9 ± 1.9 nM

B22: target 1 insG 3' of 19,insG 3' of 1 (mixed)
RNA 1: B1 RNA 1
RNA 2: B17 RNA 2 with C53G
Kd: 87 ± 26 nM

B23: target 1 G12U,A14C (mixed)
RNA 1: B1 RNA 1
RNA 2: B3 RNA 2 with C35G, A38C, G40U, C42U
Kd: 42 ± 6 nM

B24: target 1 C2A,A18U (mixed)
RNA 1: B1 RNA 1
RNA 2: B3 RNA 2 with A34U, C35G, C42U, C50A
Kd: 24.2 ± 1.2 nM

B25: target 1 insA 3' of 22,insC 3' of 19 (mixed)
RNA 1: B1 RNA 1
RNA 2: B4 RNA 2 with C31A, A32C, U33A, A34U, G35C, G36A, A37G, G38A, U39G
Kd: 51 ± 7 nM

B26: target 1 U11G,U19C (mixed)
RNA 1: B1 RNA 1
RNA 2: B3 RNA 2 with U33C, C35G, U41G, C42U
Kd: 86 ± 18 nM

B27: target 1 A1U,U10G (mixed)
RNA 1: B1 RNA 1
RNA 2: B3 RNA 2 with C35G, C42G, A51U
Kd: 26.4 ± 2.4 nM

B28: target 1 insG 3' of 19,insU 3' of 1 (mixed)
RNA 1: B1 RNA 1
RNA 2: B17 RNA 2 with C53U
Kd: 63 ± 16 nM

B29: target 1 insU 3' of 21,insU 3' of 20 (mixed)
RNA 1: B1 RNA 1
RNA 2: B4 RNA 2 with A32U, U33A, A34U, G35U, G36A, A37G, G38A, U39G
Kd: 27.8 ± 3.3 nM

B30: target 1 insA 3' of 7,insU 3' of 7 (mixed)
RNA 1: B1 RNA 1
RNA 2: B1 RNA 2 with C40G, G41U, U43A, A44U, U45C, C46A, A47U
Kd: 6.31 ± 0.23 nM

B31: target 1 insC 3' of 20,insA 3' of 11 (mixed)
RNA 1: B1 RNA 1
RNA 2: B4 RNA 2 with U33C, A34U, G35A, U39A, A40G, G42U, U43A
Kd: 11.9 ± 0.7 nM

B32: target 1 A1G,G5A (mixed)
RNA 1: B1 RNA 1
RNA 2: B3 RNA 2 with C35G, C42U, G47A, A51G
Kd: 35 ± 4 nM

B33: target 1 U8A,U10C (mixed)
RNA 1: B1 RNA 1
RNA 2: B3 RNA 2 with C35G, U44A
Kd: 19.2 ± 1.2 nM
